# T1: SHANK1, Q9Y566
# T1 sequence (Q9Y566 658-767, limits assumed, looked up): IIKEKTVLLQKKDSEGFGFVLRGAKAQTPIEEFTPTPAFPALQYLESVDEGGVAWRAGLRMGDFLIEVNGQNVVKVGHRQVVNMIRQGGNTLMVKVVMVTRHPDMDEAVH
# T2: LNX2_3, Q8N448
# T2 sequence (Q8N448 463-564, limits assumed, looked up): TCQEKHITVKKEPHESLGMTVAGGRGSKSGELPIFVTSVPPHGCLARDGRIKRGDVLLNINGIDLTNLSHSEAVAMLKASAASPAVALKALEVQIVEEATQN
# T3: LIN7A, O14910
# T3 sequence (O14910 103-200, limits assumed, looked up): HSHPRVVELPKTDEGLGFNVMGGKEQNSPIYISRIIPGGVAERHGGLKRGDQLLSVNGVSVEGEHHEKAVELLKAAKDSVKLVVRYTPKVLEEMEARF
# T4: MPDZ_12, O75970
# T4 sequence (O75970 1857-1958, limits assumed, looked up): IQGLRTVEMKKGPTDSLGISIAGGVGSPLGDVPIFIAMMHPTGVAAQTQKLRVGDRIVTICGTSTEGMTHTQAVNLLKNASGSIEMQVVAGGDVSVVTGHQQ
# T5: RAPGEF6, Q8TEU7
# T5 sequence (Q8TEU7 525-625, limits assumed, looked up): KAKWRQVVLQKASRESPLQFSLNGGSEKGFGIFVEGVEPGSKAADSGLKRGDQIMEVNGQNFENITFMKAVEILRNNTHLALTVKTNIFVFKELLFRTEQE
# T6: CARD11, Q9BXL7
# T6 sequence (Q9BXL7 662-765, limits assumed, looked up): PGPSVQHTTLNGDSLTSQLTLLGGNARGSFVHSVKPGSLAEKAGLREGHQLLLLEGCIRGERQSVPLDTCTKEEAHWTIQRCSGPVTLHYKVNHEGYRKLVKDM
# T7: NHERF3_4, Q5T2W1
# T7 sequence (Q5T2W1 373-468, limits assumed, looked up): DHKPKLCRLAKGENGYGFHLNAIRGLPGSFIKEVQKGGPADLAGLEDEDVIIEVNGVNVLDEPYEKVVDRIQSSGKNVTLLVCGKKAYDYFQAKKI
# T8: APBA1_2, Q02410
# T8 sequence (Q02410 742-832, limits assumed, looked up): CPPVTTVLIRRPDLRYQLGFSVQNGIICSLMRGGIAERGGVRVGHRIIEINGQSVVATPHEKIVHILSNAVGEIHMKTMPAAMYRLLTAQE
# T9: PDZD2_2, O15018
# T9 sequence (O15018 329-429, limits assumed, looked up): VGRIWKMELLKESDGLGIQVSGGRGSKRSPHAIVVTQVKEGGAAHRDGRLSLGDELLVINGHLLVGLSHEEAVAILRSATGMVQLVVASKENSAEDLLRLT
# Molecular target: NHERF4_1, Q86UT5-2
# Experiment: holdup assay
# Parameters: key: below the threshold = too weak to quantify, mostly under pKd 3.1 to 4
# Settings: plain residues with an end cap or a label only (N-terminal biotin on a linker: ado-ado)
# NHERF4_1, Q86UT5-2, sequence (Q86UT5 other isoform, or with tags, fused parts or gaps): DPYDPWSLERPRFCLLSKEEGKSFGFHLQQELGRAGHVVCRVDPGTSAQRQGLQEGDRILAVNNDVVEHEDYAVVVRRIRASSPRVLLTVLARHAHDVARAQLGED
row,pKd,Binder
1,below the threshold,"GDGLDDEIAV [NOS1AP, O75052]"
2,below the threshold,"QNRIITKTDV [SMCHD1, A6NHR9]"

# Molecular target: MAGI2_2, Q86UL8
# Experiment: holdup assay
# Parameters: key: below the threshold = too weak to quantify, mostly under pKd 3.1 to 4
# Settings: plain residues with an end cap or a label only (N-terminal biotin on a linker: ado-ado)
# MAGI2_2, Q86UL8, sequence (Q86UL8 410-522): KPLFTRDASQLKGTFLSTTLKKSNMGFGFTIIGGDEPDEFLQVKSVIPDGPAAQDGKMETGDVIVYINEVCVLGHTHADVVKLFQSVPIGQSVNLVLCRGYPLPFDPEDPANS
row,pKd,Binder
1,below the threshold,"GDGLDDEIAV [NOS1AP, O75052]"
2,4.08,"QNRIITKTDV [SMCHD1, A6NHR9]"

# Molecular target: GRIP2_6, Q9C0E4
# Experiment: holdup assay
# Parameters: key: below the threshold = too weak to quantify, mostly under pKd 3.1 to 4
# Settings: plain residues with an end cap or a label only (N-terminal biotin on a linker: ado-ado)
# GRIP2_6, Q9C0E4, sequence (Q9C0E4 648-740): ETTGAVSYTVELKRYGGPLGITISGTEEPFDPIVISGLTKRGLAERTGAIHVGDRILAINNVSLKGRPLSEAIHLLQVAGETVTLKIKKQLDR
row,pKd,Binder
1,below the threshold,"GDGLDDEIAV [NOS1AP, O75052]"
2,3.49,"QNRIITKTDV [SMCHD1, A6NHR9]"

# Molecular target: T1, SHANK1, Q9Y566
# Experiment: holdup assay
# Parameters: key: below the threshold = too weak to quantify, mostly under pKd 3.1 to 4
# Settings: plain residues with an end cap or a label only (N-terminal biotin on a linker: ado-ado)
row,pKd,Binder
1,below the threshold,"GDGLDDEIAV [NOS1AP, O75052]"
2,below the threshold,"QNRIITKTDV [SMCHD1, A6NHR9]"

# Molecular target: DLG5_1, Q8TDM6
# Experiment: holdup assay
# Parameters: key: below the threshold = too weak to quantify, mostly under pKd 3.1 to 4
# Settings: plain residues with an end cap or a label only (N-terminal biotin on a linker: ado-ado)
# DLG5_1, Q8TDM6, sequence (Q8TDM6 617-713): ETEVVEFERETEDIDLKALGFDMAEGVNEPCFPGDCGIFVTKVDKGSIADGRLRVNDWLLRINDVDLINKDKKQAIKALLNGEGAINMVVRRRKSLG
row,pKd,Binder
1,below the threshold,"GDGLDDEIAV [NOS1AP, O75052]"
2,below the threshold,"QNRIITKTDV [SMCHD1, A6NHR9]"

# Molecular target: MAGI1_1, Q96QZ7
# Experiment: holdup assay
# Parameters: key: below the threshold = too weak to quantify, mostly under pKd 3.1 to 4
# Settings: plain residues with an end cap or a label only (N-terminal biotin on a linker: ado-ado)
# MAGI1_1, Q96QZ7, sequence (Q96QZ7 1-106): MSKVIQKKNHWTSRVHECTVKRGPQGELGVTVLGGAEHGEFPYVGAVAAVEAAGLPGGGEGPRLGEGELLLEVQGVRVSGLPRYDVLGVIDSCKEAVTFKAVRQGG
row,pKd,Binder
1,below the threshold,"GDGLDDEIAV [NOS1AP, O75052]"
2,below the threshold,"QNRIITKTDV [SMCHD1, A6NHR9]"

# Molecular target: LNX1_3, Q8TBB1
# Experiment: holdup assay
# Parameters: key: below the threshold = too weak to quantify, mostly under pKd 3.1 to 4
# Settings: plain residues with an end cap or a label only (N-terminal biotin on a linker: ado-ado)
# LNX1_3, Q8TBB1, sequence (Q8TBB1 500-596): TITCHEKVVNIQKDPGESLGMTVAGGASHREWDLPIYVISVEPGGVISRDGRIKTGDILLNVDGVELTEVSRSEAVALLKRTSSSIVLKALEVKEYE
row,pKd,Binder
1,below the threshold,"GDGLDDEIAV [NOS1AP, O75052]"
2,below the threshold,"QNRIITKTDV [SMCHD1, A6NHR9]"

# Molecular target: T2, LNX2_3, Q8N448
# Experiment: holdup assay
# Parameters: key: below the threshold = too weak to quantify, mostly under pKd 3.1 to 4
# Settings: plain residues with an end cap or a label only (N-terminal biotin on a linker: ado-ado)
row,pKd,Binder
1,below the threshold,"GDGLDDEIAV [NOS1AP, O75052]"
2,below the threshold,"QNRIITKTDV [SMCHD1, A6NHR9]"

# Molecular target: T3, LIN7A, O14910
# Experiment: holdup assay
# Parameters: key: below the threshold = too weak to quantify, mostly under pKd 3.1 to 4
# Settings: plain residues with an end cap or a label only (N-terminal biotin on a linker: ado-ado)
row,pKd,Binder
1,below the threshold,"GDGLDDEIAV [NOS1AP, O75052]"
2,below the threshold,"QNRIITKTDV [SMCHD1, A6NHR9]"

# Molecular target: GRASP, Q7Z6J2
# Experiment: holdup assay
# Parameters: key: below the threshold = too weak to quantify, mostly under pKd 3.1 to 4
# Settings: plain residues with an end cap or a label only (N-terminal biotin on a linker: ado-ado)
# GRASP, Q7Z6J2, sequence (Q7Z6J2 96-193): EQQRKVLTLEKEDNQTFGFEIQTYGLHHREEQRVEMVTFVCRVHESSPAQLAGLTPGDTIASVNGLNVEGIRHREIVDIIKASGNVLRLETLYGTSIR
row,pKd,Binder
1,below the threshold,"GDGLDDEIAV [NOS1AP, O75052]"
2,3.92,"QNRIITKTDV [SMCHD1, A6NHR9]"

# Molecular target: GRIP2_4, Q9C0E4
# Experiment: holdup assay
# Parameters: key: below the threshold = too weak to quantify, mostly under pKd 3.1 to 4
# Settings: plain residues with an end cap or a label only (N-terminal biotin on a linker: ado-ado)
# GRIP2_4, Q9C0E4, sequence (Q9C0E4 446-548): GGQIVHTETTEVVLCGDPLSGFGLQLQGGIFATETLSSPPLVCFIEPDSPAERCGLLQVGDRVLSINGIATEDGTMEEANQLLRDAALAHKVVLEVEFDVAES
row,pKd,Binder
1,below the threshold,"GDGLDDEIAV [NOS1AP, O75052]"
2,below the threshold,"QNRIITKTDV [SMCHD1, A6NHR9]"

# Molecular target: T4, MPDZ_12, O75970
# Experiment: holdup assay
# Parameters: key: below the threshold = too weak to quantify, mostly under pKd 3.1 to 4
# Settings: plain residues with an end cap or a label only (N-terminal biotin on a linker: ado-ado)
row,pKd,Binder
1,below the threshold,"GDGLDDEIAV [NOS1AP, O75052]"
2,below the threshold,"QNRIITKTDV [SMCHD1, A6NHR9]"

# Molecular target: SCRIB_1, Q14160
# Experiment: holdup assay
# Parameters: key: below the threshold = too weak to quantify, mostly under pKd 3.1 to 4
# Settings: plain residues with an end cap or a label only (N-terminal biotin on a linker: ado-ado)
# SCRIB_1, Q14160, sequence (Q14160 718-814): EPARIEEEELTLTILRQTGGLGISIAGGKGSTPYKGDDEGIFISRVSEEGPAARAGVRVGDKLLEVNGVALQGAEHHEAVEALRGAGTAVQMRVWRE
row,pKd,Binder
1,below the threshold,"GDGLDDEIAV [NOS1AP, O75052]"
2,3.88,"QNRIITKTDV [SMCHD1, A6NHR9]"

# Molecular target: T5, RAPGEF6, Q8TEU7
# Experiment: holdup assay
# Parameters: key: below the threshold = too weak to quantify, mostly under pKd 3.1 to 4
# Settings: plain residues with an end cap or a label only (N-terminal biotin on a linker: ado-ado)
row,pKd,Binder
1,below the threshold,"GDGLDDEIAV [NOS1AP, O75052]"
2,below the threshold,"QNRIITKTDV [SMCHD1, A6NHR9]"

# Molecular target: T6, CARD11, Q9BXL7
# Experiment: holdup assay
# Parameters: key: below the threshold = too weak to quantify, mostly under pKd 3.1 to 4
# Settings: plain residues with an end cap or a label only (N-terminal biotin on a linker: ado-ado)
row,pKd,Binder
1,below the threshold,"GDGLDDEIAV [NOS1AP, O75052]"
2,below the threshold,"QNRIITKTDV [SMCHD1, A6NHR9]"

# Molecular target: PARD3_3, Q8TEW0
# Experiment: holdup assay
# Parameters: key: below the threshold = too weak to quantify, mostly under pKd 3.1 to 4
# Settings: plain residues with an end cap or a label only (N-terminal biotin on a linker: ado-ado)
# PARD3_3, Q8TEW0, sequence (Q8TEW0 582-685): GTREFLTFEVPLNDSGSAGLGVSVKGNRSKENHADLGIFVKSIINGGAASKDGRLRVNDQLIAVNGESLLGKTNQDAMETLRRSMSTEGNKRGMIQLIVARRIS
row,pKd,Binder
1,4.3,"GDGLDDEIAV [NOS1AP, O75052]"
2,below the threshold,"QNRIITKTDV [SMCHD1, A6NHR9]"

# Molecular target: DLG4_3, P78352
# Experiment: holdup assay
# Parameters: key: below the threshold = too weak to quantify, mostly under pKd 3.1 to 4
# Settings: plain residues with an end cap or a label only (N-terminal biotin on a linker: ado-ado)
# DLG4_3, P78352, sequence (P78352 306-403): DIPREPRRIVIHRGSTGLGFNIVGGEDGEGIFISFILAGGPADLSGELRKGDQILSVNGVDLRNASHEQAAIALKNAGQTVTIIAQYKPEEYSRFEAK
row,pKd,Binder
1,below the threshold,"GDGLDDEIAV [NOS1AP, O75052]"
2,below the threshold,"QNRIITKTDV [SMCHD1, A6NHR9]"

# Molecular target: SNX27, Q96L92
# Experiment: holdup assay
# Parameters: key: below the threshold = too weak to quantify, mostly under pKd 3.1 to 4
# Settings: plain residues with an end cap or a label only (N-terminal biotin on a linker: ado-ado)
row,pKd,Binder
1,4.19,"GDGLDDEIAV [NOS1AP, O75052]"
2,3.84,"QNRIITKTDV [SMCHD1, A6NHR9]"

# Molecular target: TJP2_1, Q9UDY2
# Experiment: holdup assay
# Parameters: key: below the threshold = too weak to quantify, mostly under pKd 3.1 to 4
# Settings: plain residues with an end cap or a label only (N-terminal biotin on a linker: ado-ado)
# TJP2_1, Q9UDY2, sequence (Q9UDY2 24-128): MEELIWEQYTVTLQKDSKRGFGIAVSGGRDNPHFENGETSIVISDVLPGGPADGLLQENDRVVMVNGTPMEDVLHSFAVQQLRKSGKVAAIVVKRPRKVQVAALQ
row,pKd,Binder
1,below the threshold,"GDGLDDEIAV [NOS1AP, O75052]"
2,3.61,"QNRIITKTDV [SMCHD1, A6NHR9]"

# Molecular target: T7, NHERF3_4, Q5T2W1
# Experiment: holdup assay
# Parameters: key: below the threshold = too weak to quantify, mostly under pKd 3.1 to 4
# Settings: plain residues with an end cap or a label only (N-terminal biotin on a linker: ado-ado)
row,pKd,Binder
1,below the threshold,"GDGLDDEIAV [NOS1AP, O75052]"
2,below the threshold,"QNRIITKTDV [SMCHD1, A6NHR9]"

# Molecular target: Inadl_3, Q8NI35
# Experiment: holdup assay
# Parameters: key: below the threshold = too weak to quantify, mostly under pKd 3.1 to 4
# Settings: plain residues with an end cap or a label only (N-terminal biotin on a linker: ado-ado)
# Inadl_3, Q8NI35, sequence (Q8NI35 359-469): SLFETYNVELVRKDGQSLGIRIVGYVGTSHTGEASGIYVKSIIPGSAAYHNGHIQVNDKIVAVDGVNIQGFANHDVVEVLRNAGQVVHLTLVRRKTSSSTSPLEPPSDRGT
row,pKd,Binder
1,below the threshold,"GDGLDDEIAV [NOS1AP, O75052]"
2,below the threshold,"QNRIITKTDV [SMCHD1, A6NHR9]"

# Molecular target: IL16_4, Q14005
# Experiment: holdup assay
# Parameters: key: below the threshold = too weak to quantify, mostly under pKd 3.1 to 4
# Settings: plain residues with an end cap or a label only (N-terminal biotin on a linker: ado-ado)
# IL16_4, Q14005, sequence (Q14005 1229-1329): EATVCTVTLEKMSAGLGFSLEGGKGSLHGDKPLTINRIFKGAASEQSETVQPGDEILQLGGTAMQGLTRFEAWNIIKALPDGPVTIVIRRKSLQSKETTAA
row,pKd,Binder
1,below the threshold,"GDGLDDEIAV [NOS1AP, O75052]"
2,below the threshold,"QNRIITKTDV [SMCHD1, A6NHR9]"

# Molecular target: HTRA2, O43464
# Experiment: holdup assay
# Parameters: key: below the threshold = too weak to quantify, mostly under pKd 3.1 to 4
# Settings: plain residues with an end cap or a label only (N-terminal biotin on a linker: ado-ado)
# HTRA2, O43464, sequence (O43464 355-458): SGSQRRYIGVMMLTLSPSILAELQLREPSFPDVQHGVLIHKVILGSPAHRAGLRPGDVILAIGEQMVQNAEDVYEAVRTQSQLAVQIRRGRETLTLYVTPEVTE
row,pKd,Binder
1,below the threshold,"GDGLDDEIAV [NOS1AP, O75052]"
2,below the threshold,"QNRIITKTDV [SMCHD1, A6NHR9]"

# Molecular target: Inadl_9, Q8NI35
# Experiment: holdup assay
# Parameters: key: below the threshold = too weak to quantify, mostly under pKd 3.1 to 4
# Settings: plain residues with an end cap or a label only (N-terminal biotin on a linker: ado-ado)
# Inadl_9, Q8NI35, sequence (Q8NI35 1530-1615): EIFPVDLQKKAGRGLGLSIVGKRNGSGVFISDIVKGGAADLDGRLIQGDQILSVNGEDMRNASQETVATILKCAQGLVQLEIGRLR
row,pKd,Binder
1,3.69,"GDGLDDEIAV [NOS1AP, O75052]"
2,3.55,"QNRIITKTDV [SMCHD1, A6NHR9]"

# Molecular target: LIMK2, P53671
# Experiment: holdup assay
# Parameters: key: below the threshold = too weak to quantify, mostly under pKd 3.1 to 4
# Settings: plain residues with an end cap or a label only (N-terminal biotin on a linker: ado-ado)
# LIMK2, P53671, sequence (P53671 143-248): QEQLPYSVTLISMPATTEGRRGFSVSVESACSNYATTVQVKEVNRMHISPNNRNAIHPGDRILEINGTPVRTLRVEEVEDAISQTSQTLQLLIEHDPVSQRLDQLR
row,pKd,Binder
1,below the threshold,"GDGLDDEIAV [NOS1AP, O75052]"
2,below the threshold,"QNRIITKTDV [SMCHD1, A6NHR9]"

# Molecular target: T8, APBA1_2, Q02410
# Experiment: holdup assay
# Parameters: key: below the threshold = too weak to quantify, mostly under pKd 3.1 to 4
# Settings: plain residues with an end cap or a label only (N-terminal biotin on a linker: ado-ado)
row,pKd,Binder
1,below the threshold,"GDGLDDEIAV [NOS1AP, O75052]"
2,3.9,"QNRIITKTDV [SMCHD1, A6NHR9]"

# Molecular target: Inadl_8, Q8NI35
# Experiment: holdup assay
# Parameters: key: below the threshold = too weak to quantify, mostly under pKd 3.1 to 4
# Settings: plain residues with an end cap or a label only (N-terminal biotin on a linker: ado-ado)
# Inadl_8, Q8NI35, sequence (Q8NI35 1425-1530): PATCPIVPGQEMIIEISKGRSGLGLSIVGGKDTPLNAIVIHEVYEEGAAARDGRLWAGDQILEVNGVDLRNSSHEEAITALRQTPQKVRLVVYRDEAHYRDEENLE
row,pKd,Binder
1,below the threshold,"GDGLDDEIAV [NOS1AP, O75052]"
2,4.77,"QNRIITKTDV [SMCHD1, A6NHR9]"

# Molecular target: NHERF2_2, Q15599
# Experiment: holdup assay
# Parameters: key: below the threshold = too weak to quantify, mostly under pKd 3.1 to 4
# Settings: plain residues with an end cap or a label only (N-terminal biotin on a linker: ado-ado)
# NHERF2_2, Q15599, sequence (Q15599 142-238): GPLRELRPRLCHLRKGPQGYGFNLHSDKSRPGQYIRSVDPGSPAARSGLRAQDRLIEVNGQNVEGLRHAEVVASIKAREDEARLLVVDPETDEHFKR
row,pKd,Binder
1,below the threshold,"GDGLDDEIAV [NOS1AP, O75052]"
2,below the threshold,"QNRIITKTDV [SMCHD1, A6NHR9]"

# Molecular target: T9, PDZD2_2, O15018
# Experiment: holdup assay
# Parameters: key: below the threshold = too weak to quantify, mostly under pKd 3.1 to 4
# Settings: plain residues with an end cap or a label only (N-terminal biotin on a linker: ado-ado)
row,pKd,Binder
1,3.55,"GDGLDDEIAV [NOS1AP, O75052]"
2,4.4,"QNRIITKTDV [SMCHD1, A6NHR9]"

# Source: article PMC9482650, “Quantitative fragmentomics allow affinity mapping of interactomes” (Nature Communications, 2022)
